Assay results as given in patent publication US20160185837A1 (Medimmune Limited, priority 2013, published 2016).

T1: mouse GIP receptor (mGIPr) (Mus musculus, UniProt Q0P543)
T1 construct: expressed in transfected cells; host or cells: HEK293s or CHO cells
T1 sequence (Q0P543 19-460): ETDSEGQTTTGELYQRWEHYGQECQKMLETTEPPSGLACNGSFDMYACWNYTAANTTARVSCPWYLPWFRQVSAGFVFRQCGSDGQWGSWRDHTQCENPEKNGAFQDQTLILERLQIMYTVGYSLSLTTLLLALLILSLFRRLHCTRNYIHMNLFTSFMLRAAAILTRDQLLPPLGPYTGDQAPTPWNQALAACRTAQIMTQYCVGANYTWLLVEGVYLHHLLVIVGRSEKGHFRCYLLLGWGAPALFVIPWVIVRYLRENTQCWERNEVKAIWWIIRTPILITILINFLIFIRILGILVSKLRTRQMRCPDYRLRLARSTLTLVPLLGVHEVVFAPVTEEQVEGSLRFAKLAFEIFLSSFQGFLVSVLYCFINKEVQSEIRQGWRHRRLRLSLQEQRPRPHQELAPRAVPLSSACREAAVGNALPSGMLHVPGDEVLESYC

T2: rat GIP receptor (rGIPr) (Rattus norvegicus, UniProt P43219)
T2 construct: expressed in transfected cells; host or cells: HEK293s or CHO cells
T2 sequence (P43219 19-455): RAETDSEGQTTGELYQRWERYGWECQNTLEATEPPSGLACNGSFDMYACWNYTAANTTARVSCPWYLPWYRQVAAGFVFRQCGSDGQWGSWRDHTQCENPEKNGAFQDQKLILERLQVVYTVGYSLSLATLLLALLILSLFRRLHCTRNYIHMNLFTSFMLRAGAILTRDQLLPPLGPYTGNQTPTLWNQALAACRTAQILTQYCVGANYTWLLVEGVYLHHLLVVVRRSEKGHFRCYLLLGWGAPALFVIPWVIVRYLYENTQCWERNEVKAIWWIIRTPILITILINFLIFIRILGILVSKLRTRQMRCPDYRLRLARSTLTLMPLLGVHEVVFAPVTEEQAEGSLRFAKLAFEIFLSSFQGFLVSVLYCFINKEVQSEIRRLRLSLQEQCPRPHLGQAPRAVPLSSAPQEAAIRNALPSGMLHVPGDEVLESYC

T3: rat GLP-1 receptor (rGLP-1r) (Rattus norvegicus, UniProt P32301)
T3 construct: expressed in transfected cells; host or cells: HEK293s or CHO cells
T3 sequence (P32301 22-463): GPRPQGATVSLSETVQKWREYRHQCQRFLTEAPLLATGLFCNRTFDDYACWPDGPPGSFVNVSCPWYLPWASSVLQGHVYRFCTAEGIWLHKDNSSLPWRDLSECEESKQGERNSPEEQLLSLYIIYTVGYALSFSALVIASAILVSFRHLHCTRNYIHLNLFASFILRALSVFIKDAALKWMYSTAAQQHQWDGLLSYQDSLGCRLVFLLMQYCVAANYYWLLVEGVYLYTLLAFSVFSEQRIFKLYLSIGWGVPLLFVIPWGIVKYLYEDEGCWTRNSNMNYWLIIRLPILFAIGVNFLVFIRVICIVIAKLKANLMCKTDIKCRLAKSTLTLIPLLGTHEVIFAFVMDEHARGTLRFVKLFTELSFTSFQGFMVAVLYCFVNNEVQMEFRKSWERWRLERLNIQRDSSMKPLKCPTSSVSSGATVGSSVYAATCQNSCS

T4: mouse GLP-1 receptor (mGLP-1r) (Mus musculus, UniProt O35659)
T4 construct: expressed in transfected cells; host or cells: HEK293s or CHO cells
T4 sequence (O35659 22-463): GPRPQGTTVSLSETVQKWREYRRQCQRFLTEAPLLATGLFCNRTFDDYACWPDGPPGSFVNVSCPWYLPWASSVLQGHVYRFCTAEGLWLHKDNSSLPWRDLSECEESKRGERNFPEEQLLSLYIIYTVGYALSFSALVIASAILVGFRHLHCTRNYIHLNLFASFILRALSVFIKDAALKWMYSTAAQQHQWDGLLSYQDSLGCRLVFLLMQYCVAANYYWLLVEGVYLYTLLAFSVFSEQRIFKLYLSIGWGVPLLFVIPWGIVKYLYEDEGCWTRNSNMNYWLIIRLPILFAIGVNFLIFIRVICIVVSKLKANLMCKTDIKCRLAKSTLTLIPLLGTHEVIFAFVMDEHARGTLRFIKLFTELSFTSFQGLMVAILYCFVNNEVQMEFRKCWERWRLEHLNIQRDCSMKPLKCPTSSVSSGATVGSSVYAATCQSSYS

T5: human GIP receptor (hGIPr) (Homo sapiens, UniProt P48546)
T5 construct: expressed in transfected cells
T5 sequence (P48546 22-466): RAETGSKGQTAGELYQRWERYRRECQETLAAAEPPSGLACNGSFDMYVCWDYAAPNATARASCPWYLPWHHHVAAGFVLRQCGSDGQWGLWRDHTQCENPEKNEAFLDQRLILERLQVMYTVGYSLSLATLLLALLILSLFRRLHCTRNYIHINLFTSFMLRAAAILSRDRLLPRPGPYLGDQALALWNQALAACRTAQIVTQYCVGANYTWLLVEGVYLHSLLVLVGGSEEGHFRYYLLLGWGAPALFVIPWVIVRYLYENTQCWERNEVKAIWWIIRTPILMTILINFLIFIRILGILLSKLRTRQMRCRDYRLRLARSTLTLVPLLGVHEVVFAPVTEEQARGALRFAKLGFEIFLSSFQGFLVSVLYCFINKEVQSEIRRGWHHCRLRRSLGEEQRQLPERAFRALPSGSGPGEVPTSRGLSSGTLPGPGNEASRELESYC


Columns and labels:
Assay type in all cases: cell-based
[1] = target: T1, mouse GIP receptor (mGIPr); assay: BSA-cAMP assay, cells expressing mouse GIP receptor; settings: Batch 1; BSA-cAMP assay; read-out: mGIPr cAMP activity EC50
Method: (§1) One basic cAMP assays was performed, differing in the medium used for the assay, the “BSA-cAMP assay”:
(§2) BSA-based assay medium: 0.1% bovine serum albumin (BSA) in
(§3) In certain aspects, the assay can also be carried out in medium supplemented with serum albumin that corresponds to the receptor being tested, e.g., human serum albumin for testing cAMP activity at hGIPr or hGLP-1r, rat serum albumin for testing cAMP activity at rGIPr or rGLP-1r, and so on. […] All sample dilutions were made in duplicate.
(§4) A frozen cryo-vial of cells expressing the receptor of interest was thawed rapidly in a water-bath, transferred to pre-warmed assay media and spun at 240×g for 5 minutes. Cells were re-suspended in assay buffer at an optimized concentration (e.g., hGLP-1r and hGIPr cells at 0.5×10^5 cells/ml).
(§5) To this, 5 μL cell suspension was added and the plates incubated at room temperature for 30 minutes.
(§6) cAMP levels were measured using a commercially available cAMP dynamic 2 HTRF kit (Cisbio, Cat #62AM4PEJ), following the two step protocol as per manufacturer's recommendations. In brief; anti-cAMP cryptate (donor fluorophore) and cAMP-d2 (acceptor fluorophore) were made up separately by diluting each 1/20 in conjugate & lysis buffer provided in the kit. 5 μL anti-cAMP cryptate was added to all wells of the assay plate, and 5 μL cAMP-d2 added to all wells except non-specific binding (NSB) wells, to which conjugate and lysis buffer was added. […] Data was transformed to % Delta F as described in manufacturer's guidelines and then transformed to percent activation of maximal native agonist response and analysed by 4-parameter logistic fit to determine EC50 values.
(§7) We used unconstrained 4 parameter logistic fit of data, curve mid-point to determine EC50. This was tested on two occasions, not two batches.
(§8) In order to be able to carry out in vivo studies in rodents, IP088 was tested for potency against the mouse receptors mGIPr and mGLP-1r as well as the rat receptors rGIPr and rGLP-1r, using cells expressing the respective receptors in the cAMP assay described above.

[2] = target: T6, human glucagon receptor (GCGr) (Homo sapiens, UniProt P47871); assay: BSA-cAMP assay, cells expressing human glucagon receptor; settings: Batch 1, read-out: hGCGr cAMP activity EC50
T6 construct: expressed in transfected cells; host or cells: HEK293s or CHO cells
Method: as §1, §2, §3, §4, §5, §6, §7

[3] = target: T2, rat GIP receptor (rGIPr); assay: BSA-cAMP assay, cells expressing rat GIP receptor; settings: Batch 1; BSA-cAMP assay; read-out: rGIPr cAMP activity EC50
Method: as §1, §2, §3, §4, §5, §6, §7, §8

[4] = target: T3, rat GLP-1 receptor (rGLP-1r); assay: BSA-cAMP assay, cells expressing rat GLP-1 receptor; settings: Batch 1; BSA-cAMP assay; read-out: rGLP1r cAMP activity EC50
Method: as §1, §2, §3, §4, §5, §6, §7, §8

[5] = target: T4, mouse GLP-1 receptor (mGLP-1r); assay: BSA-cAMP assay, cells expressing mouse GLP-1 receptor; settings: Batch 1; BSA-cAMP assay; read-out: mGLP1r cAMP activity EC50
Method: as §1, §2, §3, §4, §5, §6, §7, §8

[6] = target: T5, human GIP receptor (hGIPr); assay: BSA-cAMP assay, cells expressing human GIP receptor; settings: Batch 1; BSA-cAMP assay; read-out: hGIPr cAMP activity EC50
Method: For human GIPr, two different lines were used, shown as “hGIPr” and “hGIPr (C3)” in Table 11.
as §1, §2, §3, §4, §5, §6, §7

[7] = target: T7, human GLP-1 receptor (hGLP-1r) (Homo sapiens, UniProt P43220); assay: BSA-cAMP assay, cells expressing human GLP-1 receptor; settings: Batch 1; BSA-cAMP assay; read-out: hGLP1r cAMP activity EC50
T7 construct: expressed in transfected cells
Method: as §1, §2, §3, §4, §5, §6, §7

T7 sequence (P43220 24-463): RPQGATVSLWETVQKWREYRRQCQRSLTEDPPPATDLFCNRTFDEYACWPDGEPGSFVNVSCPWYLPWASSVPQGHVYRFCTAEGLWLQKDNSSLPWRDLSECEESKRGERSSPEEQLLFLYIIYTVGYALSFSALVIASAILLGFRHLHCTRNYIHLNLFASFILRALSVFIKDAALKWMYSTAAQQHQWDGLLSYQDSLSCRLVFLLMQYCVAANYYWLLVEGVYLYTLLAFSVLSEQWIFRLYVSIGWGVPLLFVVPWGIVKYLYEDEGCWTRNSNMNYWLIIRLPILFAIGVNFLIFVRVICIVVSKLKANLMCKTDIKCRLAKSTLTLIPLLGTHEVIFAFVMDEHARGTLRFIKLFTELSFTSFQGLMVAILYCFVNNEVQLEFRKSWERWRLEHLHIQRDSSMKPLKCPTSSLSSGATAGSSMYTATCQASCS
T6 sequence (P47871 26-477): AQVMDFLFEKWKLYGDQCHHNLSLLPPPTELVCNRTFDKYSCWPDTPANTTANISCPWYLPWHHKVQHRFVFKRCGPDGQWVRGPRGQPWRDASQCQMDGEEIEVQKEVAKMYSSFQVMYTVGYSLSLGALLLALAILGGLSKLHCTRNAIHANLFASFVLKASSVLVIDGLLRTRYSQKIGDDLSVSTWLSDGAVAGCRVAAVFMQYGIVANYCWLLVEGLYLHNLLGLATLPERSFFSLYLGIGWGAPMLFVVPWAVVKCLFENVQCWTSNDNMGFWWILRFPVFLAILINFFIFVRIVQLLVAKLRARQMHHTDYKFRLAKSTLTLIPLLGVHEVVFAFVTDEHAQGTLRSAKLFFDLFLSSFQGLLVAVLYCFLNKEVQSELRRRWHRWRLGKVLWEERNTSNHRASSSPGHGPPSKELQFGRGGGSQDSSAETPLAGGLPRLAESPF

Row | Molecule | EC50 [1] | EC50 [2] | EC50 [3] | EC50 [4] | EC50 [5] | EC50 [6] | EC50 [7]
1 | IP301 (protein) YSEGTFTSDVSSYLEREAIDEFIAWLLKGGAAAGGSGSTASSGSGSATGGGGAATHTCPPC | 22 nM | 12000 nM | 4.7 nM | 0.058 nM | 1.9 nM | 0.12 nM | 0.31 nM
2 | IP307 (protein) YSEGTFTSDVSSYMERQAIDEFIAWLLKQGAAAGGSGSTASSGSGSATGGGGAATHTCPPC | 31 nM | 4100 nM | 5.2 nM | 0.21 nM | 6.5 nM | 0.091 nM | 1.6 nM
3 | IP310 (protein) YSEGTFTSDVSSYMERQAIDEFIAWLLKGKAAAGGSGSTASSGSGSATGGGGAATHTCPPC | 31 nM | 3700 nM | 5.2 nM | 0.038 nM | 1.4 nM | 0.15 nM | 0.35 nM
4 | IP312 (protein) YSEGTFISDVSSYMERQAIDEFIAWLLKGGAAAGGSGSTASSGSGSATGGGGAATHTCPPC | 16 nM | > 5310 nM | 1.2 nM | 5.4 nM | > 1060 nM | 0.048 nM | > 5310 nM
5 | IP365 (protein) YSEGMHTSDFSKLLERQAIDEFIAWLLKGGAAAGGSGSTASSGSGSATGGGGAATHTCPPC | 17 nM | > 10700 nM | 0.12 nM | 1.5 nM | 11 nM | 0.02 nM | 0.87 nM

The next molecules have a lower EC50 [1] than those just listed; values first:

Row | EC50 [1] | EC50 [2] | EC50 [3] | EC50 [4] | EC50 [5] | EC50 [6] | EC50 [7] | Molecule
6 | 15 nM | 900 nM | 1.3 nM | 1.7 nM | 16 nM | 0.086 nM | 7.7 nM | IP309 (protein) YSEGTFISDVSSYLERQAIDEFIAWLLKGGAAAGGSGSTASSGSGSATGGGGAATHTCPPC
7 | 10 nM | > 17600 nM | 0.06 nM | 0.23 nM | 10 nM | 0.0095 nM | – | IP394 (protein) YSEGMHTSDLSKLLERQAIDEFIAWLLKGGAAAGGSGSTASSGSGSATGGGGAATHTCPPC
8 | 3.1 nM | > 2250 nM | 0.4 nM | – | 100 nM | – | 17 nM | IP378 (protein) YSEGTFTSLYRILLERQAIDEFIAWLLKGGAAAGGSGSTASSGSGSATGGGGAATHTCPPC
9 | 0.5 nM | 610 nM | 0.02 nM | 0.058 nM | 0.69 nM | 0.0085 nM | 0.18 nM | IP364 (protein) YSEGTFTSDFSKLLERQAIDEFIAWLLKGGAAAGGSGSTASSGSGSATGGGGAATHTCPPC
10 | 0.36 nM | 280 nM | 0.096 nM | 13 nM | > 5460 nM | 0.024 nM | > 5460 nM | IP315 (protein) YSEGTFISDYSSYLERQAIDEFIAWLLKGGAAAGGSGSTASSGSGSATGGGGAATHTCPPC
11 | 0.25 nM | 220 nM | 0.026 nM | 0.015 nM | 0.25 nM | 0.011 nM | 0.1 nM | IP306 (protein) YSEGTFTSDYSKLLERQAIDEFIAWLLKGGAAAGGSGSTASSGSGSATGGGGAATHTCPPC
12 | 0.056 nM | > 10200 nM | 0.016 nM | 14 nM | 100 nM | 0.14 nM | 6.1 nM | IP366 (protein) YSEGTFTSDYRMLKERQAIDEFIAWLLKGGAAAGGSGSTASSGSGSATGGGGAATHTCPPC
